{"source": "paper PMC10999833", "about": "(Molecular Biology and Evolution, 2024)", "proteins": {"B1": {"name": "ancestor MBP-His6-J^981–1132 (wild-type bacteriophage λ J, C-terminal 152 amino acids, MBP-tagged) (domain or fragment, UniProt P03749 981-1132, looked up)", "chain": "NCTINGTLRAEKIVGDIVKAASAAFPRQRESSVDWPSGTRTVTVTDDHPFDRQIVVLPLTFRGSKRTVSGRTTYSMCYLKVLMNGAVIYDGAANEAVQVFSRIVDMPAGRGNVILTFTLTSTRHSADIPPYTFASDVQVMVIKKQALGISVV"}}, "biological_target": "the molecule itself", "assay": "SEC-MALS", "note": "Values joined by “and” are separate entries in the source; they are usually repeats but may differ in a detail not shown here. Equal values may be shown once.", "data": [{"protein": "B1", "values": [{"measurement": "stoichiometry N", "result": "3 and 2"}]}]}
